Measured values reported in article PMC4986892 (RNA, 2016).
Each block holds one binder with its values, some of them ahead of it.

What was measured:
[1] = target: T1, S. pombe Dcp1:Dcp2_(RD+CD) decapping complex (S. pombe, UniProt Q9P805;O13828); assay: fluorescence polarisation
T1 sequence 1: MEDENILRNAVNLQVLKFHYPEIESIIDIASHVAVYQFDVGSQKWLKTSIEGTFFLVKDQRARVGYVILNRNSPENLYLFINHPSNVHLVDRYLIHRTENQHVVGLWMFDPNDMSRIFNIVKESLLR
T1 sequence 2: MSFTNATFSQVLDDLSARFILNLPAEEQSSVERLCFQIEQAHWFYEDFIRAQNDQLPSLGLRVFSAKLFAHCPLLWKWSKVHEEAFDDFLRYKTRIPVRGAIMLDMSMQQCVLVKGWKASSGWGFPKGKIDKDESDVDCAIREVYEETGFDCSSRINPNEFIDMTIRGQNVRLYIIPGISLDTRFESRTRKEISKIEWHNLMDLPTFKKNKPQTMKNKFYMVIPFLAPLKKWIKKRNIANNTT

[2] = target: T2, S. pombe Dcp1:Dcp2RD decapping complex (S. pombe, UniProt Q9P805;O13828); assay: NMR titration
T2 sequence 1: T1 sequence 1
T2 sequence 2: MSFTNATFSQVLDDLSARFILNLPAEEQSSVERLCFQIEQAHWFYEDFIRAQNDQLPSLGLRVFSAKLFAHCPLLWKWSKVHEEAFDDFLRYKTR

[3] = target: T2, S. pombe Dcp1:Dcp2RD decapping complex; assay: NMR titration; remark: listed apart in the source
[4] = target: T2, S. pombe Dcp1:Dcp2RD decapping complex; assay: fluorescence polarisation
S. pombe Dcp1 = target: T3, S. pombe Dcp1 (S. pombe, UniProt Q9P805); assay: NMR titration
T3 sequence: T1 sequence 1

B1: S. pombe Edc1 (144–215) (domain or fragment)
chain: SFSSNSSSDTNSILYAGPTFTHSPAASNLPIPTFLHSPVSEKAEWQPPTGSVNSNMPFQFHQSSSVPSTPSE
Kd [1]: 415 nM

Binder: APSDLATPQPSTFPQPPVESHSSFDIKQKILHLLNEGNEPKSPI (domain or fragment) [S. pombe Dcp2 C-terminal region (269–312)]
Kd [2]: 310000 ± 110000 nM

Binder: SFSSNSSSDTNSILYAGPTFTHSPAASNLPIPTFLHSP [S. pombe Edc1 (144–181), as used for NMR]
binding result [3]: binds

B2: Fluorescently labeled S. pombe Edc1 1–221 (S183C) (domain or fragment)
chain: MQKDIGRRFQRNKKKINSKPGGAMVASSDVEFSLDGMSIMPQRDGNLQIPNFVKPKSTFATSNIGESNGKRNGDKVRGNRRSKSGHSSYAGSRISGGNSNSHLPSGVASAPAGLGIDKVAVGEVDSHLKSVSSYVSNSSGADRSFSSNSSSDTNSILYAGPTFTHSPAASNLPIPTFLHSPVCEKAEWQPPTGSVNSNMPFQFHQSSSVPSTPSEVAMGHN
modifications: 5-(iodoacetamido)-fluorescein on the cysteine introduced by S183C (labeling efficiency ~50%)
Kd [4]: 143 nM
Kd [1]: 250 nM

Binder: VSQGTDSRLVTKPTSTFPSPPSPPSSSVWNKREH [S. pombe Xrn1 (1224–1257)]
Kd [2]: 640000 ± 170000 nM

Next, values leading:

binding result [3]: binds
Binder: GTEIQPIPPSIDPSLYVFP [S. pombe Dhh1 (401–419)]

binding result (S. pombe Dcp1): binds
B3: S. pombe Dcp2 C-terminal tail (267–350) (domain or fragment)
chain: STAPSDLATPQPSTFPQPPVESHSSFDIKQKILHLLNEGNEPKSPIQLPPVSNLPLNPPIQSSNSRLSHDNNSFDPFAYLGLDP

binding result [3]: binds
B4: S. pombe Xrn1 (1201–1328) (domain or fragment)
chain: TNPQFVVNTRAGKNRKTNVSANNVSQGTDSRLVTKPTSTFPSPPSPPSSSVWNKREHHPKPFSLHQVPPPESLIHKSKSKFSKGNHHSTNGTQSIRGRGGKRGKPLRSKELNRKHDHIVQPMGKLQIN
